Source: the supplement of paper PMC10567573

Assay: protein stability index of a GFP-peptide fusion (GPS, HEK-293T) (PSI 1-6); higher = more stable
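Further: lentivirally expressed fusions sorted by FACS into six bins by GFP to DsRed ratio, PSI derived from sequencing read proportions per bin multiplied by bin number.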

YHSPELTTPPGHGTLDNSKSMKPY [NEUROD6 WT]
protein stability index (parent: IOH27687_36, c terminus: a fixed tail appended): 2.22

FHCIETLVTTGANVNETDDWGRTA [ANKRD44 WT]
protein stability index (parent: IOH28621_76, c terminus: a fixed tail appended): 1.99

TTKCVRQYEGHVNEYAYLPLHVHE
protein stability index (parent: IOH28737_51, c terminus: a fixed tail appended): 2.65

YQRPQDSEDMWGDEDFTFGAYQPT
protein stability index (parent: IOH27821_46, c terminus: a fixed tail appended): 2.9

RTHTGEKPYTCSVCGKSFSRTTCL
protein stability index (parent: IOH28719_61, c terminus: a fixed tail appended): 2.43

DSHILLCLMGLAETPGCATLLPAS
protein stability index (parent: IOH28737_24, c terminus: a fixed tail appended): 2.86

YPPPPPALPSSAPSGPPPPPPSVL [WASL WT]
protein stability index (parent: IOH28816_58, c terminus: a fixed tail appended): 4.3

RIHTGERPYMCKECGKAFSQNSSL
protein stability index (parent: IOH28719_47, c terminus: a fixed tail appended): 2.6

FVKALDDLHKMNHVTPPNVSLGAT [JUNB WT]
protein stability index (parent: IOH27814_24, c terminus: a fixed tail appended): 1.94

HAPTIHFNYRYFEVEEADGNKQWW [CPOX WT]
protein stability index (parent: IOH27839_43, c terminus: a fixed tail appended): 2.33

SLGRHKRTHTGEKPYTCSVCGKSF
protein stability index (parent: IOH28719_60, c terminus: a fixed tail appended): 2.55

LQRASILDMRRDHEEQLQRLKLLK
protein stability index (parent: IOH27821_117, c terminus: a fixed tail appended): 3.67

HVTHWMGQPFNSDDRNTACHHGLV
protein stability index (parent: IOH28890_3, c terminus: a fixed tail appended): 2.14

VHVIGVEEPSVGASMLFDIREST
protein stability index (parent: IOH28719_96, c terminus: native): 2.07

KPYTCSVCGKSFSRTTCLFLHLRT
protein stability index (parent: IOH28719_62, c terminus: a fixed tail appended): 2.03

TVHEVDIFRCFCPVFLHSQMLWEL [FAM116A WT]
protein stability index (parent: IOH27644_45, c terminus: a fixed tail appended): 3

YQSYFKTIEELQQKILCAKAENAR
protein stability index (parent: IOH28032_25, c terminus: a fixed tail appended): 1.83

QLQCSPAELQAELLHSQARLAELE
protein stability index (parent: IOH27821_96, c terminus: a fixed tail appended): 3.22

PGIDRPGMLCSFRIPGAWSCAWSL
protein stability index (parent: IOH28737_29, c terminus: a fixed tail appended): 2.84

KRSWEEHVTHWMGQPFNSDDRNTA
protein stability index (parent: IOH28890_2, c terminus: a fixed tail appended): 2.65

TLARMSRRTRGPVERAAAAAAAAA [C6orf223 WT]
protein stability index (parent: IOH28619_19, c terminus: a fixed tail appended): 2.35

ISEYEKSLQFDEKCLSIMLAEWEA [RPAIN WT]
protein stability index (parent: IOH28888_19, c terminus: a fixed tail appended): 1.85

AIQGISEKEKAEIEAKEACDWLRA
protein stability index (parent: IOH28890_74, c terminus: a fixed tail appended): 4.41

FGDSPKAEKRQIGDQEGPRPARST
protein stability index (parent: IOH27821_37, c terminus: a fixed tail appended): 4.98

KISGGPRISYPLLHEWALREGEE [MAGEA6 WT]
protein stability index (parent: IOH28024_53, c terminus: native): 2.93

PTVDLNQVLNETRSQYEALVETNR
protein stability index (parent: IOH28032_44, c terminus: a fixed tail appended): 3.1

PMYFFLGNLSVLDVGCISVTVPSM [OR3A1 WT]
protein stability index (parent: IOH28412_11, c terminus: a fixed tail appended): 2.98
